No end group written: not given here.
How the values were obtained:
[1] = biological target: T1, HLA-DR15 (HLA-DRB1*15:01) (human); assay: competition ELISA vs biotin-A3 152-166
T1 construct: mature; purified from homozygous EBV-transformed lymphoblastoid cells with antibody L243

HLA-DR3 (HLA-DRB1*03:01) = biological target: T2, HLA-DR3 (HLA-DRB1*03:01) (human); assay: competition ELISA vs biotin-MT 2-16
T2 construct: mature; purified from homozygous EBV-transformed lymphoblastoid cells with antibody L243

HLA-DR4 (HLA-DRB1*04:01) = biological target: T3, HLA-DR4 (HLA-DRB1*04:01) (human); assay: competition ELISA vs biotin-HA 306-318;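 note: HLA and competitor incubated 24 to 72 h, maximal signal taken from wells lacking competitor, background from wells lacking HLA molecule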
T3 construct: mature; purified from homozygous EBV-transformed lymphoblastoid cells with antibody L243

HLA-DR7 (HLA-DRB1*07:01) = biological target: T4, HLA-DR7 (HLA-DRB1*07:01) (human); assay: competition ELISA vs biotin-YKL
T4 construct: mature; purified from homozygous EBV-transformed lymphoblastoid cells with antibody L243

HLA-DR1 (HLA-DRB1*01:01) = biological target: T5, HLA-DR1 (HLA-DRB1*01:01) (human); assay: competition ELISA vs biotin-HA 306-318;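 note: HLA and competitor incubated 24 to 72 h, maximal signal taken from wells lacking competitor, background from wells lacking HLA molecule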
T5 construct: mature; class II HLA molecule purified from homozygous EBV-transformed lymphoblastoid cells with antibody L243

[2] = biological target: T6, HLA-DRB5 (HLA-DRB5*01:01) (human); assay: competition ELISA vs biotin-HA 306-318;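 note: HLA and competitor incubated 24 to 72 h, maximal signal taken from wells lacking competitor, background from wells lacking HLA molecule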
T6 construct: mature; purified from homozygous EBV-transformed lymphoblastoid cells with antibody L243

[3] = biological target: T7, HLA-DR11 (HLA-DRB1*11:01) (human); assay: competition ELISA vs biotin-HA 306-318;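 note: HLA and competitor incubated 24 to 72 h, maximal signal taken from wells lacking competitor, background from wells lacking HLA molecule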
T7 construct: mature; purified from homozygous EBV-transformed lymphoblastoid cells with antibody L243

[4] = biological target: T8, HLA-DR13 (HLA-DRB1*13:01) (human); assay: competition ELISA vs biotin-B1 21-36
T8 construct: mature; purified from homozygous EBV-transformed lymphoblastoid cells with antibody L243

Binder	relative affinity [1]	relative affinity (HLA-DR3 (HLA-DRB1*03:01))	relative affinity (HLA-DR4 (HLA-DRB1*04:01))	relative affinity (HLA-DR7 (HLA-DRB1*07:01))	relative affinity (HLA-DR1 (HLA-DRB1*01:01))	relative affinity [2]	relative affinity [3]	relative affinity [4]
EDLCQAFSDVILAVN-NH2 [CCNB1 140-154]	207	161	1110	–	–	–	–	–
SDVILAVNDVDAEDG-NH2 [CCNB1 147-161]	7	–	54	–	–	–	–	–
LAVNDVDAEDGADPN-NH2 [CCNB1 151-165]	–	–	667	–	–	–	–	–
KDIYAYLRQLEEEQA-NH2 [CCNB1 172-186]	11	33	–	1600	42	775	1	5
RQLEEEQAVRPKYLL-NH2 [CCNB1 179-193]	–	–	–	271	9000	2160	–	943
QAVRPKYLLGREVTG-NH2 [CCNB1 185-199]	–	–	260	–	59	1670	22	4
PKYLLGREVTGNMRA-NH2 [CCNB1 189-203]	–	764	34	–	17	–	3	–
DRFMQNNCVPKKMLQ-NH2 [CCNB1 231-245]	–	–	52	–	11	1580	2000	–
RALNFGLGRPLPLHF-NH2 [CCNB1 291-305]	65	–	1410	3	1	4	1000	–
SKIGEVDVEQHTLAK-NH2 [CCNB1 310-324]	–	306	–	–	–	1500	190	1800
LDYDMVHFPPSQIAA-NH2 [CCNB1 332-346]	36	–	289	20	224	1580	511	–
GAFCLALKILDNGEW-NH2 [CCNB1 347-361]	1	–	–	–	–	–	9	–
GEWTPTLQHYLSYTE-NH2 [CCNB1 359-373]	0.2	–	500	0.4	548	224	22	–
QGLTKHMTVKNKYAT-NH2 [CCNB1 392-406]	–	408	577	533	–	47	693	7
KHMTVKNKYATSKHA-NH2 [CCNB1 396-410]	229	–	408	533	7480	–	7	9
NKYATSKHAKISTLP-NH2 [CCNB1 402-416]	–	–	707	9	367	1730	4	–

From patent publication US20180086804A1 (COMMISSARIAT A L ENERGIE ATOMIQUE ET AUX ENERGIES …, published 2018)
